Reference: PMC11554844, “BEACH domain proteins function as cargo-sorting adaptors in secretory and endocytic pathways” (The Journal of Cell Biology, 2024)

Assays:
Assay in all cases: pull-down; GST-CTLA4 (201–215) immobilised on glutathione-sepharose beads, incubated overnight at 4°C with purified protein (1 µg MBP fusion, 1 µg NBEAL2, 0.2 µg LRBA, or purified 3xFlag-EGFP-NBEAL2 fragment); washed six times in 50 mM Tris-HCl pH 7.4, 150 mM NaCl, 1% Triton X-100; detected by blot (anti-NBEAL2, anti-LRBA, anti-Flag, anti-MBP)
Conditions in all cases: both partners purified
[1] = target: T1, 3xFlag-EGFP-NBEAL2(1792-2754) (human, UniProt Q6ZNJ1-1 1792-2754)
T1 construct: NBEAL2, human, C-terminal fragment with the PH-BEACH-WD40 domains; The legend's upper limit 2794 differs from the plasmid's name; also called C-terminal fragment of NBEAL2; C-terminal (PH-BEACH-WD40 domains) fragment of NBEAL2; source: purified; not shown: 3xFlag, N-terminal, kept; EGFP, N-terminal, kept
T1 sequence (Q6ZNJ1 1792-2754): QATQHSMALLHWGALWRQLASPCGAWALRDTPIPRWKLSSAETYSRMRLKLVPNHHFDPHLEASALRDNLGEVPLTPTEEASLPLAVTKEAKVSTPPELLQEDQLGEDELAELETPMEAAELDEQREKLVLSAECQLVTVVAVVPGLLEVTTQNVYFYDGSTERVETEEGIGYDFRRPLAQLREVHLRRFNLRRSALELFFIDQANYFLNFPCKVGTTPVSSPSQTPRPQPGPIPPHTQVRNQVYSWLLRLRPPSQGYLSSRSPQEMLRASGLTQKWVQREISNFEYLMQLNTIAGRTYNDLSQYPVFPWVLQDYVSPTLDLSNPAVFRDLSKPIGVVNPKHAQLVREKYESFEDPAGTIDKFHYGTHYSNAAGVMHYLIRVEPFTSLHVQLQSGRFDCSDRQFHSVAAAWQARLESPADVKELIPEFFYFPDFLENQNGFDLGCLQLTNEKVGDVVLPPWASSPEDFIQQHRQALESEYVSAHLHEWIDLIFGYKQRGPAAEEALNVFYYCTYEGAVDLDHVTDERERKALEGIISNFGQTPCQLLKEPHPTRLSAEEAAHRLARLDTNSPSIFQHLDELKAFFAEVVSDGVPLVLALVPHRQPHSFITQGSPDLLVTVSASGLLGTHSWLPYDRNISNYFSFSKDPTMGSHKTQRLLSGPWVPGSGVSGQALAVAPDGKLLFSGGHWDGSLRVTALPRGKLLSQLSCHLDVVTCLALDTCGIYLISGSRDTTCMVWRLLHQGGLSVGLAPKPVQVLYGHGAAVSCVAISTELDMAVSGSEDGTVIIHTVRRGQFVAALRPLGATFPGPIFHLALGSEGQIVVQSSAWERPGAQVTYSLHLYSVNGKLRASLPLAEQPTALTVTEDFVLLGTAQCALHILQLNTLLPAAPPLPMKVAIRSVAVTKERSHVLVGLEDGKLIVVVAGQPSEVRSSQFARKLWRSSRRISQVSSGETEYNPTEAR

[2] = target: T2, Purified full-length untagged NBEAL2 (human, UniProt Q6ZNJ1-1 1-2754)
T2 construct: NBEAL2, human; also called 3xFlag-EGFP-SUMOstar-NBEAL2 after SUMOstar protease; source: FreeStyle 293-F, transiently transfected, purified (GFP-Trap agarose, eluted with SUMOstar protease); not shown: 3xFlag, N-terminal, cleaved; EGFP, N-terminal, cleaved; SUMOstar, N-terminal, cleaved

[3] = target: T3, Purified full-length untagged LRBA (human, UniProt P50851-1 1-2863)
T3 construct: LRBA, human; also called 3xFlag-EGFP-SUMOstar-LRBA after SUMOstar protease; source: FreeStyle 293-F, transiently transfected, purified (GFP-Trap agarose, eluted with SUMOstar protease); not shown: 3xFlag, N-terminal, cleaved; EGFP, N-terminal, cleaved; SUMOstar, N-terminal, cleaved
T3 sequence (P50851 whole entry): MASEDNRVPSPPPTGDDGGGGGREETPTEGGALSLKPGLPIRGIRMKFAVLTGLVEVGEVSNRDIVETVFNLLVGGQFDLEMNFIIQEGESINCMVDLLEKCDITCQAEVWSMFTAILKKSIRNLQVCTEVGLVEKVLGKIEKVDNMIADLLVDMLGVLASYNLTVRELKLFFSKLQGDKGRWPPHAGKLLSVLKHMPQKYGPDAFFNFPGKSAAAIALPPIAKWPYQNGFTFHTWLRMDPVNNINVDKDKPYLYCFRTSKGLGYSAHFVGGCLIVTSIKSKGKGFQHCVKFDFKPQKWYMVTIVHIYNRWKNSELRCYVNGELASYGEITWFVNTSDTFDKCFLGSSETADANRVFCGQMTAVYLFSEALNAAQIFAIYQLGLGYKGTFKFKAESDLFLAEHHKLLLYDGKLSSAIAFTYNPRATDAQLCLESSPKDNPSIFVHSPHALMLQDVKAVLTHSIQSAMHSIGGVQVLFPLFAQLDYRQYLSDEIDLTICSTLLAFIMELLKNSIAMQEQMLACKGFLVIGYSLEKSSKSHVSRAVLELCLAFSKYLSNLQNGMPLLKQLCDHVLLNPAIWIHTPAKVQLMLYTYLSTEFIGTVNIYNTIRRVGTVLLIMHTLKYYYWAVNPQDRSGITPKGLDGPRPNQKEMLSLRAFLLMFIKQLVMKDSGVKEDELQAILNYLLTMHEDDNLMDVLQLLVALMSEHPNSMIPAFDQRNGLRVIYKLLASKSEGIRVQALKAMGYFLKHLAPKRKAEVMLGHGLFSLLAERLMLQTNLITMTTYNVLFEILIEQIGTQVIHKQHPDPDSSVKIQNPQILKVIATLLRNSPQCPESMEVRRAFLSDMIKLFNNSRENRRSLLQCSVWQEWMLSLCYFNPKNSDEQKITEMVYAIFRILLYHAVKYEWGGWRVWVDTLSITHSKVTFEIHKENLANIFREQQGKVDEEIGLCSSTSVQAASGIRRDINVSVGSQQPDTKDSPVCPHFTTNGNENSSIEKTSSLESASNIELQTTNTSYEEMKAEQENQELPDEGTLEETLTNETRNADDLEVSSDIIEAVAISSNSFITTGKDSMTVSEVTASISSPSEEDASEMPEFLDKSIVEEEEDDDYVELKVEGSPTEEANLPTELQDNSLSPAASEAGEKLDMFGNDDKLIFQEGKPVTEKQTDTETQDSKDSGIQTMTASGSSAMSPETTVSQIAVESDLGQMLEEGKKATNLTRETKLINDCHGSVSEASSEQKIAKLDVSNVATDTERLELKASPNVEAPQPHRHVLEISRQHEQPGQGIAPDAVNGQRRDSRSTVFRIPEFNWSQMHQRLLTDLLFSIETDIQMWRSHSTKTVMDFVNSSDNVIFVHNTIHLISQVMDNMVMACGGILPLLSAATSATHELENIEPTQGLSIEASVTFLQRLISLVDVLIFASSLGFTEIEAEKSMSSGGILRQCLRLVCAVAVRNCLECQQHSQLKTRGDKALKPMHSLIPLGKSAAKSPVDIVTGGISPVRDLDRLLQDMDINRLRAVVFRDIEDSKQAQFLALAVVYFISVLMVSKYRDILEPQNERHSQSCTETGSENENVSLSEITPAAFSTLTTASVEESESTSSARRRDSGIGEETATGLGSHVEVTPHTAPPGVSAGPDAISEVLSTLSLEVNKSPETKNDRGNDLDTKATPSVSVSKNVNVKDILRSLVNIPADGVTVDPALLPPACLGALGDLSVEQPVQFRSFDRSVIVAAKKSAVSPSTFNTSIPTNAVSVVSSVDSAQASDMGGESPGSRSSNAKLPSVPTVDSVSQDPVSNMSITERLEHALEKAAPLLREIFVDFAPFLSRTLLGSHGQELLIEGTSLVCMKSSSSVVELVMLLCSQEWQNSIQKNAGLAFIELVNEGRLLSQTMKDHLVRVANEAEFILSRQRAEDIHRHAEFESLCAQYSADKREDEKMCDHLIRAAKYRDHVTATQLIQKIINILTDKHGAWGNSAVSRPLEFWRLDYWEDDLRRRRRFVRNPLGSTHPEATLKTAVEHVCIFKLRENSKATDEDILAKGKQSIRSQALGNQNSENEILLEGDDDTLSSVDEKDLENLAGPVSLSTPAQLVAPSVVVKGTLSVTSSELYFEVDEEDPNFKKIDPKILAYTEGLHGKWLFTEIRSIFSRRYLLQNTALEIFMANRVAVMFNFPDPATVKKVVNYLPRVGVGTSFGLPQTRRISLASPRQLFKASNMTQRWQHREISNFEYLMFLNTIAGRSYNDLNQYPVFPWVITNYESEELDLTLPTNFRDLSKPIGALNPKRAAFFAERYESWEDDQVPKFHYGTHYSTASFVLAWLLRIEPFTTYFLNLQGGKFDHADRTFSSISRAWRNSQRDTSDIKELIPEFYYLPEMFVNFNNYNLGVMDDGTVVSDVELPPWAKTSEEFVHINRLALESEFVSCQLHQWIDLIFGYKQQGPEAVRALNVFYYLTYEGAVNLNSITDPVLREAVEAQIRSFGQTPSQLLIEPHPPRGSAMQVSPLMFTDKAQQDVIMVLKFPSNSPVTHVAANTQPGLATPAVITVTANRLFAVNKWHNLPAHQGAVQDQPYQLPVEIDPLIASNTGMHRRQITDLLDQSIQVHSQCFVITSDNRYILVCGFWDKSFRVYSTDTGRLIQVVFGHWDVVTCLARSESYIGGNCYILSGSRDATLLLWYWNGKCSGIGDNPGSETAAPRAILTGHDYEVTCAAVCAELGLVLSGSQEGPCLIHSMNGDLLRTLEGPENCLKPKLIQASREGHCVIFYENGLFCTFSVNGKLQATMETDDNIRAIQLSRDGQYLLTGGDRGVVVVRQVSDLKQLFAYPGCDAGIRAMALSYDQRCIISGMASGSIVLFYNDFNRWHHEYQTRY

binding result [1]: binds
binding result [2]: binds
binding result [3]: binds
B1: GST-CTLA4 (201–215) (domain or fragment, human, UniProt P16410 201-215, looked up)
chain: YVKMPPTEPECEKQF
notes: source: E. coli BL21(DE3), purified on Glutathione Sepharose 4B beads
